The text below walks through data of PMC7857493.

Assay [1] concerns the target T1, Human neutrophil-derived myeloperoxidase (nMPO) (human), P05164. The assay can be described thus: native MS; whole unfractionated intact nMPO infused by nano-ESI (gold-coated capillaries) into a modified Q-Exactive, positive ion polarity.
For assay [2], the target named is T1, Human neutrophil-derived …. Nature of the assay: mass photometry; single-molecule mass photometry of intact nMPO on coverslips with silicone gaskets; apparent; diprotomer (ααββ) to monoprotomers (αβ).

B1: Human neutrophil-derived myeloperoxidase (nMPO), P05164 279-745; P05164 279-745 (enzyme)
chain 1: not shown
chain 2: VNCETSCVQQPPCFPLKIPPNDPRIKNQADCIPFFRSCPACPGSNITIRNQINALTSFVDASMVYGSEEPLARNLRNMSNQLGLLAVNQRFQDNGRALLPFDNLHDDPCLLTNRSARIPCFLAGDTRSSEMPELTSMHTLLLREHNRLATELKSLNPRWDGERLYQEARKIVGAMVQIITYRDYLPLVLGPTAMRKYLPTYRSYNDSVDPRIANVFTNAFRYGHTLIQPFMFRLDNRYQPMEPNPRVPLSRVFFASWRVVLEGGIDPILRGLMATPAKLNRQNQIAVDEIRERLFEQVMRIGLDLPALNMQRSRDHGLPGYNAWRRFCGLPQPETVGQLGTVLRNLKLARKLMEQYGTPNNIDIWMGGVSEPLKRKGRVGPLLACIIGTQFRKLRDGDRFWWENEGVFSMQQRQALAQISLPRIICDNTGITTVSKNNIFMSNSYPRDFVNCSTLPALNLASWREAS
modifications: heme covalently links the α- and β-chains; Met251 and Met253 oxidation and Trp255 oxidation variants; polypeptide truncation variants | N-glycans at Asn323 and Asn483 (mainly paucimannosidic M2F-M3F), Asn355 and Asn391 (mainly oligomannosidic M5-M6), Asn729 (largely unoccupied or GlcNAc1-GlcNAc1F); Met and Trp mono-/di-oxidation, Tyr mono-chlorination; Cys319-Cys319 bridge between the two …
For B1, the stoichiometry N in assay [1] was determined as 2. Also, in assay [2], the Kd came out at 0.05 nM, the percent diprotomer turned out to be 93%, the percent monoprotomer came out at 7% and the stoichiometry N worked out at 2.

In general, stoichiometry N refers to the number of molecules, sites or subunits per partner or assembly.
